To fix the notation:
B1: XENP40888 (LB_1002, 2+1 VHVL) (antibody)
chain 1: EVQLLESGGGLVQPGGSLRLSCAVSGFSLSSYGVIWVRQAPGKGLEYVSWVSSGGSTNYASSVKGRFTISRDTSKNTVYLQMNSLRAEDTAVYFCARGATNSGTDIWGPGTLVTVSSASTKGPSVFPLAPSSKSTSGGTAALGCLVKDYFPEPVTVSWNSGALTSGVHTFPAVLQSSGLYSLSSVVTVPSSSLGTQTYICNVNHKPSDTKVDKKVEPKSCDKTHTCPPCPAPELLGGPSVFLFPPKPKDTLMISRTPEVTCVVVDVSHEDPEVKFNWYVDGVEVHNAKTKPREEEYNSTYRVVSVLTVLHQDWLNGKEYKCKVSNKALPAPIEKTISKAKGQPREPQVYTLPPSREEMTKNQVSLTCDVSGFYPSDIAVEWESDGQPENNYKTTPPVLDSDGSFFLYSKLTVDKSRWEQGDVFSCSVMHEALHNHYTQKSLSLSPGK
chain 2: EVQLLESGGGLVQPGGSLRLSCAVSGFSLSSYGVIWVRQAPGKGLEYVSWVSSGGSTNYASSVKGRFTISRDTSKNTVYLQMNSLRAEDTAVYFCARGATNSGTDIWGPGTLVTVSSASTKGPSVFPLAPSSKSTSGGTAALGCLVKDYFPEPVTVSWNSGALTSGVHTFPAVLQSSGLYSLSSVVTVPSSSLGTQTYICNVNHKPSNTKVDKKVEPKSCGGGGSGGGGSEVQLVESGGGLVKPGGSLRLSCAASGFTFSSYSMNWVRQAPGKGLEWVSSISSSSSYIYYADSVKGRFTISRDNAKNSLYLQMNSLRAEDTAVYYCARGAPMGAAAGWFDPWGQGTLVTVSSGKPGSGKPGSGKPGSGKPGSDIQMTQSPSSVSASVGDRVTITCRASQGISSWLAWYQQKPGKAPKLLIYAASSLQSGVPSRFSGSGSGTDFTLTISSLQPEDFATYYCQQGVSFPRTFGGGTKVEIKGGGGSGGGGSKTHTCPPCPAPELLGGPSVFLFPPKPKDTLMISRTPEVTCVVVDVSHEDPEVKFNWYVDGVEVHNAKTKPREEQYNSTYRVVSVLTVLHQDWLNGKEYKCKVSNKALPAPIEKTISKAKGQPREPQVYTLPPSREQMTKNQVKLTCLVKGFYPSDIAVEWESNGQPENNYKTTPPVLDSDGSFFLYSKLTVDKSRWQQGNVFSCSVMHEALHNHYTQKSLSLSPGK
chain 3: DIVMTQSPSSLSASVGDRVTITCRASQSINSWLSWYQQKPGKPPKLLIYGASNLASGVPSRFKGSGSGTDFTLTISSLQPEDFATYYCQNNYGIIAAGATFGGGTKVEIKRTVAAPSVFIFPPSDEQLKSGTASVVCLLNNFYPREAKVQWKVDNALQSGNSQESVTEQDSKDSTYSLSSTLTLSKADYEKHKVYACEVTHQGLSSPVTKSFNRGEC
B2: XENP41344 (1D7B4, mAb-scFv VLVH) (antibody)
chain 1: EVQLLESGGGLVQPGGSLRLSCAVSGFSLSSYGVIWVRQAPGKGLEYVSWVSSGGSTNYASSVKGRFTISRDTSKNTVYLQMNSLRAEDTAVYFCARGATNSGTDIWGPGTLVTVSSASTKGPSVFPLAPSSKSTSGGTAALGCLVKDYFPEPVTVSWNSGALTSGVHTFPAVLQSSGLYSLSSVVTVPSSSLGTQTYICNVNHKPSDTKVDKKVEPKSCDKTHTCPPCPAPELLGGPSVFLFPPKPKDTLMISRTPEVTCVVVDVSHEDPEVKFNWYVDGVEVHNAKTKPREEEYNSTYRVVSVLTVLHQDWLNGKEYKCKVSNKALPAPIEKTISKAKGQPREPQVYTLPPSREEMTKNQVSLTCDVSGFYPSDIAVEWESDGQPENNYKTTPPVLDSDGSFFLYSKLTVDKSRWEQGDVFSCSVMHEALHNHYTQKSLSLSPGK
chain 2: not shown
chain 3: DIVMTQSPSSLSASVGDRVTITCRASQSINSWLSWYQQKPGKPPKLLIYGASNLASGVPSRFKGSGSGTDFTLTISSLQPEDFATYYCQNNYGIIAAGATFGGGTKVEIKRTVAAPSVFIFPPSDEQLKSGTASVVCLLNNFYPREAKVQWKVDNALQSGNSQESVTEQDSKDSTYSLSSTLTLSKADYEKHKVYACEVTHQGLSSPVTKSFNRGEC
B3: XENP41333 (LB_1001, 1+1 VLVH) (antibody)
chain 1: EVQLLESGGGLVQPGGSLRLSCAVSGFSLSSYGVIWVRQAPGKGLEYVSWVSSGGSTNYASSVKGRFTISRDTSKNTVYLQMNSLRAEDTAVYFCARGATNSGTDIWGPGTLVTVSSASTKGPSVFPLAPSSKSTSGGTAALGCLVKDYFPEPVTVSWNSGALTSGVHTFPAVLQSSGLYSLSSVVTVPSSSLGTQTYICNVNHKPSDTKVDKKVEPKSCDKTHTCPPCPAPELLGGPSVFLFPPKPKDTLMISRTPEVTCVVVDVSHEDPEVKFNWYVDGVEVHNAKTKPREEEYNSTYRVVSVLTVLHQDWLNGKEYKCKVSNKALPAPIEKTISKAKGQPREPQVYTLPPSREEMTKNQVSLTCDVSGFYPSDIAVEWESDGQPENNYKTTPPVLDSDGSFFLYSKLTVDKSRWEQGDVFSCSVMHEALHNHYTQKSLSLSPGK
chain 2: not shown
chain 3: DIVMTQSPSSLSASVGDRVTITCRASQSINSWLSWYQQKPGKPPKLLIYGASNLASGVPSRFKGSGSGTDFTLTISSLQPEDFATYYCQNNYGIIAAGATFGGGTKVEIKRTVAAPSVFIFPPSDEQLKSGTASVVCLLNNFYPREAKVQWKVDNALQSGNSQESVTEQDSKDSTYSLSSTLTLSKADYEKHKVYACEVTHQGLSSPVTKSFNRGEC
B4: XENP41343 (1D2B4, mAb-scFv VLVH) (antibody)
chain 1: EVQLLESGGGLVQPGGSLRLSCAVSGFSLSSYGVIWVRQAPGKGLEYVSWVSSGGSTNYASSVKGRFTISRDTSKNTVYLQMNSLRAEDTAVYFCARGATNSGTDIWGPGTLVTVSSASTKGPSVFPLAPSSKSTSGGTAALGCLVKDYFPEPVTVSWNSGALTSGVHTFPAVLQSSGLYSLSSVVTVPSSSLGTQTYICNVNHKPSDTKVDKKVEPKSCDKTHTCPPCPAPELLGGPSVFLFPPKPKDTLMISRTPEVTCVVVDVSHEDPEVKFNWYVDGVEVHNAKTKPREEEYNSTYRVVSVLTVLHQDWLNGKEYKCKVSNKALPAPIEKTISKAKGQPREPQVYTLPPSREEMTKNQVSLTCDVSGFYPSDIAVEWESDGQPENNYKTTPPVLDSDGSFFLYSKLTVDKSRWEQGDVFSCSVMHEALHNHYTQKSLSLSPGK
chain 2: not shown
chain 3: DIVMTQSPSSLSASVGDRVTITCRASQSINSWLSWYQQKPGKPPKLLIYGASNLASGVPSRFKGSGSGTDFTLTISSLQPEDFATYYCQNNYGIIAAGATFGGGTKVEIKRTVAAPSVFIFPPSDEQLKSGTASVVCLLNNFYPREAKVQWKVDNALQSGNSQESVTEQDSKDSTYSLSSTLTLSKADYEKHKVYACEVTHQGLSSPVTKSFNRGEC
B5: XENP41338 (LB_1002, 2+1 VLVH) (antibody)
chain 1: EVQLLESGGGLVQPGGSLRLSCAVSGFSLSSYGVIWVRQAPGKGLEYVSWVSSGGSTNYASSVKGRFTISRDTSKNTVYLQMNSLRAEDTAVYFCARGATNSGTDIWGPGTLVTVSSASTKGPSVFPLAPSSKSTSGGTAALGCLVKDYFPEPVTVSWNSGALTSGVHTFPAVLQSSGLYSLSSVVTVPSSSLGTQTYICNVNHKPSDTKVDKKVEPKSCDKTHTCPPCPAPELLGGPSVFLFPPKPKDTLMISRTPEVTCVVVDVSHEDPEVKFNWYVDGVEVHNAKTKPREEEYNSTYRVVSVLTVLHQDWLNGKEYKCKVSNKALPAPIEKTISKAKGQPREPQVYTLPPSREEMTKNQVSLTCDVSGFYPSDIAVEWESDGQPENNYKTTPPVLDSDGSFFLYSKLTVDKSRWEQGDVFSCSVMHEALHNHYTQKSLSLSPGK
chain 2: EVQLLESGGGLVQPGGSLRLSCAVSGFSLSSYGVIWVRQAPGKGLEYVSWVSSGGSTNYASSVKGRFTISRDTSKNTVYLQMNSLRAEDTAVYFCARGATNSGTDIWGPGTLVTVSSASTKGPSVFPLAPSSKSTSGGTAALGCLVKDYFPEPVTVSWNSGALTSGVHTFPAVLQSSGLYSLSSVVTVPSSSLGTQTYICNVNHKPSNTKVDKKVEPKSCGGGGSGGGGSDIQMTQSPSSVSASVGDRVTITCRASQGISSWLAWYQQKPGKAPKLLIYAASSLQSGVPSRFSGSGSGTDFTLTISSLQPEDFATYYCQQGVSFPRTFGGGTKVEIKGKPGSGKPGSGKPGSGKPGSEVQLVESGGGLVKPGGSLRLSCAASGFTFSSYSMNWVRQAPGKGLEWVSSISSSSSYIYYADSVKGRFTISRDNAKNSLYLQMNSLRAEDTAVYYCARGAPMGAAAGWFDPWGQGTLVTVSSGGGGSGGGGSKTHTCPPCPAPELLGGPSVFLFPPKPKDTLMISRTPEVTCVVVDVSHEDPEVKFNWYVDGVEVHNAKTKPREEQYNSTYRVVSVLTVLHQDWLNGKEYKCKVSNKALPAPIEKTISKAKGQPREPQVYTLPPSREQMTKNQVKLTCLVKGFYPSDIAVEWESNGQPENNYKTTPPVLDSDGSFFLYSKLTVDKSRWQQGNVFSCSVMHEALHNHYTQKSLSLSPGK
chain 3: DIVMTQSPSSLSASVGDRVTITCRASQSINSWLSWYQQKPGKPPKLLIYGASNLASGVPSRFKGSGSGTDFTLTISSLQPEDFATYYCQNNYGIIAAGATFGGGTKVEIKRTVAAPSVFIFPPSDEQLKSGTASVVCLLNNFYPREAKVQWKVDNALQSGNSQESVTEQDSKDSTYSLSSTLTLSKADYEKHKVYACEVTHQGLSSPVTKSFNRGEC
B6: XENP40375 (1D7B4, 1+1 VHVL) (antibody)
chain 1: EVQLLESGGGLVQPGGSLRLSCAVSGFSLSSYGVIWVRQAPGKGLEYVSWVSSGGSTNYASSVKGRFTISRDTSKNTVYLQMNSLRAEDTAVYFCARGATNSGTDIWGPGTLVTVSSASTKGPSVFPLAPSSKSTSGGTAALGCLVKDYFPEPVTVSWNSGALTSGVHTFPAVLQSSGLYSLSSVVTVPSSSLGTQTYICNVNHKPSDTKVDKKVEPKSCDKTHTCPPCPAPELLGGPSVFLFPPKPKDTLMISRTPEVTCVVVDVSHEDPEVKFNWYVDGVEVHNAKTKPREEEYNSTYRVVSVLTVLHQDWLNGKEYKCKVSNKALPAPIEKTISKAKGQPREPQVYTLPPSREEMTKNQVSLTCDVSGFYPSDIAVEWESDGQPENNYKTTPPVLDSDGSFFLYSKLTVDKSRWEQGDVFSCSVMHEALHNHYTQKSLSLSPGK
chain 2: not shown
chain 3: DIVMTQSPSSLSASVGDRVTITCRASQSINSWLSWYQQKPGKPPKLLIYGASNLASGVPSRFKGSGSGTDFTLTISSLQPEDFATYYCQNNYGIIAAGATFGGGTKVEIKRTVAAPSVFIFPPSDEQLKSGTASVVCLLNNFYPREAKVQWKVDNALQSGNSQESVTEQDSKDSTYSLSSTLTLSKADYEKHKVYACEVTHQGLSSPVTKSFNRGEC
B7: XENP40552 (LB_1001, mAb-scFv VHVL) (antibody)
chain 1: EVQLLESGGGLVQPGGSLRLSCAVSGFSLSSYGVIWVRQAPGKGLEYVSWVSSGGSTNYASSVKGRFTISRDTSKNTVYLQMNSLRAEDTAVYFCARGATNSGTDIWGPGTLVTVSSASTKGPSVFPLAPSSKSTSGGTAALGCLVKDYFPEPVTVSWNSGALTSGVHTFPAVLQSSGLYSLSSVVTVPSSSLGTQTYICNVNHKPSDTKVDKKVEPKSCDKTHTCPPCPAPELLGGPSVFLFPPKPKDTLMISRTPEVTCVVVDVSHEDPEVKFNWYVDGVEVHNAKTKPREEEYNSTYRVVSVLTVLHQDWLNGKEYKCKVSNKALPAPIEKTISKAKGQPREPQVYTLPPSREEMTKNQVSLTCDVSGFYPSDIAVEWESDGQPENNYKTTPPVLDSDGSFFLYSKLTVDKSRWEQGDVFSCSVMHEALHNHYTQKSLSLSPGK
chain 2: not shown
chain 3: DIVMTQSPSSLSASVGDRVTITCRASQSINSWLSWYQQKPGKPPKLLIYGASNLASGVPSRFKGSGSGTDFTLTISSLQPEDFATYYCQNNYGIIAAGATFGGGTKVEIKRTVAAPSVFIFPPSDEQLKSGTASVVCLLNNFYPREAKVQWKVDNALQSGNSQESVTEQDSKDSTYSLSSTLTLSKADYEKHKVYACEVTHQGLSSPVTKSFNRGEC

This assay concerns the target T1, XENP23311 (His-tagged NKG2D-Fc) (human, UniProt P26718 78-216).
T1 chain: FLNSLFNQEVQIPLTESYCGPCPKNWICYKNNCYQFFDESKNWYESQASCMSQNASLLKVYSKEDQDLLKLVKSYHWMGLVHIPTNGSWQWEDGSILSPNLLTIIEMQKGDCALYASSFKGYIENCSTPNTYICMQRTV
As to the kind of experiment: Octet. Background: Biolayer interferometry detects binding as a change in optical thickness at a sensor tip.
With B1, the equilibrium dissociation constant (Kd) is 0.158 µM.
B2 yielded a Kd of 0.029 µM.
In the case of B3 it was 0.042 µM; in that of B4, 0.115 µM.
In turn, B5 gave a Kd of 0.63 µM.
The figure for B6 is 0.00772 µM; for B7 it is 0.0951 µM.

As usually defined, the Kd is the concentration at which binding is half-saturated. Low readings indicate higher affinity, high ones lower affinity.
